Data reported in patent US20260109775A1 (Eli Lilly, published 2026).

Tests used:
[1] = molecular target: Human CD137 expressed on stable human 293 cells (human, UniProt Q07011 24-255); experiment: cell-based or functional assay
[2] = molecular target: T1, Cynomolgus monkey CD137 expressed on stable human 293 cells (cynomolgus monkey); experiment: flow cytometry on 293 cells expressing cynomolgus monkey CD137, antibody at 0.5 micrograms/mL, MFI against control IgG
T1 construct: whole, on cells; also called Cyno-CD137
From the text: The ability of the antibodies disclosed herein to bind to cell surface cynomolgus monkey CD137 can be measured using a flow cytometric assay. Cynomolgus monkey CD137 expressing stable cells are generated by transfecting Cyno-CD137 receptor plasmid DNA into human 293 cells (ATCC) using Lipofectamine™ 2000 reagent (Invitrogen™) per manufacturer's protocol. Stable cells are selected using 0.5 micrograms/mL puromycin in Dulbecoo's Modified Eagle's Medium containing 10% fetal bovine serum and 1% GlutaMAX™. For flow cytometry, confluent adherent cells are detached using Gibco® Cell Dissociation Buffer (Life Technologies), blocked in FACS buffer (phosphate buffered saline containing 3% fetal bovine serum) for 1 h at 4° C., and then transferred into a 96-well round-bottom plate at a density of 1×10⁵ cells/well.
After washing in FACS buffer, secondary antibody R-phycoerythrin conjugated goat anti-human IgG, F(ab′)₂ fragment specific antibody (Jackson ImmunoResearch Laboratories) is added at a 1:200 dilution and cells are incubated at 4° C. for 30 minutes. Cells are washed and live/dead cell staining is performed using LIVE/DEAD® Fixable Far Red Dead Cell Stain kit (Life Technologies) per manufacturer's protocol. […] Flow cytometry data is analyzed using FlowJo® Software. Mean fluorescence intensity (MFI) ratio is calculated as the (MFI of Experimental antibody)/(MFI of the control IgG).

Sequence of Human CD137 expressed on stable human 293 cells (Q07011 24-255): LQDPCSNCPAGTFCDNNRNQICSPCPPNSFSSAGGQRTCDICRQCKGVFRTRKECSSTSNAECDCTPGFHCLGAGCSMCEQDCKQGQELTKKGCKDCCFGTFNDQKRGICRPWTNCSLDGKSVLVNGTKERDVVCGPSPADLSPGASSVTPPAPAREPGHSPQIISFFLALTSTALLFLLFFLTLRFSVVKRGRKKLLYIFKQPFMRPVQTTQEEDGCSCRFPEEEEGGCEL

NF-kappaB luciferase reporter, max activity [1] [%] | MFI ratio [2] | Binder
115 | 0.94 | BMS20H4.9 (antibody, human IgG4 S228P, kappa, V domains shown, Comparator antibody, previously described in U.S. Pat. No. 7,288,638) VH: QVQLQQWGAGLLKPSETLSLTCAVYGGSFSGYYWSWIRQSPEKGLEWIGEINHGGYVTYNPSLESRVTISVDTSKNQFSLKLSSVTAADTAVYYCARDYGPGNYDWYFDLWGRGTLVTVSS VL: EIVLTQSPATLSLSPGERATLSCRASQSVSSYLAWYQQKPGQAPRLLIYDASNRATGIPARFSGSGSGTDFTLTISSLEPEDFAVYYCQQRSNWPPALTFGGGTKVEIKR
63.4 | – | Antibody A1 (antibody, human IgG1, kappa) heavy: not shown light: AIRMTQSPPSLSASVGDRVTITCQASQDIGNSLGWYQQKPGKAPKLVIFDASDLETGVPSRFSGSGSGTDFSLTISSLQPEDFATYYCQQGNSFPLTFGQGTRLEIKRTVAAPSVFIFPPSDEQLKSGTASVVCLLNNFYPREAKVQWKVDNALQSGNSQESVTEQDSKDSTYSLSSTLTLSKADYEKHKVYACEVTHQGLSSPVTKSFNRGEC
72.3 | – | Antibody A2 (antibody, human IgG1, kappa) heavy: not shown light: IRMTQSPPSLSASVGDRVTITCQASQDIGNSLGWYQQKPGKAPKLVIFDASDLETGVPSRFSGSGSGTDFSLTISSLQPEDFATYYCQQGNSFPLTFGQGTRLEIKRTVAAPSVFIFPPSDEQLKSGTASVVCLLNNFYPREAKVQWKVDNALQSGNSQESVTEQDSKDSTYSLSSTLTLSKADYEKHKVYACEVTHQGLSSPVTKSFNRGEC
